Assay results: patent US7408027

Tests used:
[1] = target: taxol-stabilized microtubules made from PC tubulin; experiment: microtubule pelleting assay, gel densitometry, fitted
[2] = target: taxol-stabilized microtubules made from PC tubulin; experiment: microtubule pelleting assay after brain extract phosphorylation
[3] = target: taxol-stabilized microtubules made from PC tubulin; experiment: microtubule pelleting assay after 90 min phosphorylation
[4] = target: taxol-stabilized microtubules made from PC tubulin; experiment: microtubule pelleting assay, gel densitometry, fitted; 30 µM polymerized tubulin
[5] = target: taxol-stabilized microtubules made from PC tubulin; experiment: microtubule pelleting assay after 35 kDal kinase, fitted
[6] = target: taxol-stabilized microtubules made from PC tubulin; experiment: microtubule pelleting assay after 35 kDal kinase
[7] = target: taxol-stabilized microtubules made from PC tubulin; experiment: co-sedimentation of tau with microtubules in taxol, fitted binding curve (control curve)
[8] = target: taxol-stabilized microtubules made from PC tubulin; experiment: co-sedimentation of tau with taxol-stabilized microtubules (30 µM polymerized tubulin), SDS gel densitometry, fitted binding curve
[9] = target: taxol-stabilized microtubules made from PC tubulin; experiment: microtubule pelleting assay, microtubules from 10 µM tubulin with 20 µM taxol
[10] = target: taxol-stabilized microtubules made from PC tubulin; experiment: co-sedimentation of tau with microtubules made from 10 µM tubulin in 20 µM taxol, fitted binding curve
[11] = target: taxol-stabilized microtubules made from PC tubulin; experiment: co-sedimentation of tau with taxol-stabilized microtubules, SDS gel densitometry, fitted binding curve
[12] = target: taxol-stabilized microtubules made from PC tubulin; experiment: microtubule pelleting assay after MAP kinase

Which Kd [1] does the source give for “AP18 phosphorylated with the brain extract activity (from UniProt P10636 1-352)” here?
The Kd was 6.1 µM.

And the stoichiometry n (tau/tubulin dimer) (tau/tubulin dimer) [1]?
The stoichiometry n (tau/tubulin dimer) (tau/tubulin dimer) was 0.48.

What about the difference in stoichiometry upon phosphorylation (Dn) (tau/tubulin dimer) [2] of the same substance?
The difference in stoichiometry upon phosphorylation (Dn) (tau/tubulin dimer) was 0.01.

With “S404-A mutant of htau34 after 90 min of phosphorylation by the brain extract kinase activity (from UniProt P10636 1-412)” as the substance, how does the fold decrease of stoichiometry against the unphosphorylated mutant [3] read?
The fold decrease of stoichiometry against the unphosphorylated mutant was 2 fold.

What does the source list for “htau23 mutant Ser202-Ala phosphorylated with brain extract (from UniProt P10636 1-352)”?
Kd [4]: 9.4 µM; stoichiometry n (tau/tubulin dimer) (tau/tubulin dimer) [4]: 0.31

Which difference in stoichiometry upon phosphorylation (Dn) (tau/tubulin dimer) [2] does the source give for “htau23 mutant Ser262-Ala phosphorylated with brain extract (from UniProt P10636 1-352)” here?
The difference in stoichiometry upon phosphorylation (Dn) (tau/tubulin dimer) was 0.04.

For “htau23 phosphorylated by the 35 kDal kinase (from UniProt P10636 2-352)”, which Kd [5] is on record?
Its Kd is 8.8 µM.

And the stoichiometry n (tau/tubulin dimer) (tau/tubulin dimer) [5]?
The stoichiometry n (tau/tubulin dimer) (tau/tubulin dimer) was 0.21.

What about the reduction in stoichiometry upon phosphorylation (Dn) (tau/tubulin dimer) [6] of the same substance?
The reduction in stoichiometry upon phosphorylation (Dn) (tau/tubulin dimer) was 0.28.

Which Kd [4] does the source give for “htau23 phosphorylated by the brain extract kinase activity (stage 2-3, up to 24 h) (from UniProt P10636 2-352)” here?
The Kd was 4.9 µM.

What about the stoichiometry n (tau/tubulin dimer) (tau/tubulin dimer) [4] of the same substance?
The stoichiometry n (tau/tubulin dimer) (tau/tubulin dimer) was 0.16.

What about the Kd [7] of the same substance?
Its Kd is 4.9 µM.

What about the n [7] of the same substance?
The n was 0.16.

What about the difference in stoichiometry upon phosphorylation (Dn) (tau/tubulin dimer) [2] of the same substance?
The difference in stoichiometry upon phosphorylation (Dn) (tau/tubulin dimer) was 0.33.

What about the Kd [8] of the same substance?
The Kd was 4.9 µM.

What about the n [8] of the same substance?
Its n is 0.16.

“htau23 phosphorylated with GSK3 (from UniProt P10636 2-352)” was tested. Which stoichiometry (tau per tubulin dimer) (per tubulin dimer) [9] did it give?
Its stoichiometry (tau per tubulin dimer) (per tubulin dimer) is 0.6.

And the Kd [10]?
The Kd was 2.4 µM.

What about the n [10] of the same substance?
The n was 0.6.

For “htau23/A404 (Ser404 replaced by Ala), unphosphorylated (from UniProt P10636 1-758)”, which Kd [11] is on record?
Its Kd is 4.3 µM.

And the n [11]?
Its n is 0.54.

What does the source list for “htau23/A404 phosphorylated by the brain extract kinase activity (from UniProt P10636 1-352)”?
Kd [11]: 9.3 µM; n [11]: 0.32; Dn as percent of the unmutated control [2]: 52%; difference in stoichiometry upon phosphorylation (Dn) (tau/tubulin dimer) [2]: 0.17

With “htau34 phosphorylated by the brain extract kinase activity (stage 2-3, up to 24 h) (from UniProt P10636 2-412)” as the substance, how does the Kd [8] read?
Its Kd is 10.4 µM.

And the n [8]?
The n was 0.16.

With “htau34 phosphorylated by the brain extract kinase activity for 90 min (stage 1) (from UniProt P10636 2-412)” as the substance, how does the fold decrease of stoichiometry against unphosphorylated htau34 [3] read?
Its fold decrease of stoichiometry against unphosphorylated htau34 is 3 fold.

With “htau40 phosphorylated by the brain extract kinase activity (from UniProt P10636 2-758)” as the substance, how does the Kd [11] read?
Its Kd is 9.6 µM.

What about the n [11] of the same substance?
The n was 0.15.

What about the difference in stoichiometry upon phosphorylation (Dn) (tau/tubulin dimer) [2] of the same substance?
The difference in stoichiometry upon phosphorylation (Dn) (tau/tubulin dimer) was 0.31.

Which Kd [11] does the source give for “htau40 phosphorylated with MAP kinase (from UniProt P10636 2-758)” here?
The Kd was 1.9 µM.

And the n [11]?
Its n is 0.37.

And the difference in stoichiometry upon phosphorylation (Dn) (tau/tubulin dimer) [12]?
The difference in stoichiometry upon phosphorylation (Dn) (tau/tubulin dimer) was 0.09.

Which results are given for “human tau isoform htau34, bacterially expressed, unphosphorylated (from UniProt P10636 2-412)”?
Kd [1]: 1 to 2 µM; Kd [8]: 1.4 µM; n [8]: 0.43

With “human tau isoform htau40, bacterially expressed, unphosphorylated (from UniProt P10636 2-758)” as the substance, how does the Kd [11] read?
Its Kd is 1.1 µM.

And the n [11]?
Its n is 0.46.
